Measured values reported in PMC5856381, “Phenotype-specific recombinant haptoglobin polymers co-expressed with C1r-like protein as optimized hemoglobin-binding therapeutics” (BMC Biotechnology, 2018).

Target: T1, cleavage-site mutated recombinant haptoglobin Hp1S (Q101A, R102A), uncleaved proHp (human)
T1 chain: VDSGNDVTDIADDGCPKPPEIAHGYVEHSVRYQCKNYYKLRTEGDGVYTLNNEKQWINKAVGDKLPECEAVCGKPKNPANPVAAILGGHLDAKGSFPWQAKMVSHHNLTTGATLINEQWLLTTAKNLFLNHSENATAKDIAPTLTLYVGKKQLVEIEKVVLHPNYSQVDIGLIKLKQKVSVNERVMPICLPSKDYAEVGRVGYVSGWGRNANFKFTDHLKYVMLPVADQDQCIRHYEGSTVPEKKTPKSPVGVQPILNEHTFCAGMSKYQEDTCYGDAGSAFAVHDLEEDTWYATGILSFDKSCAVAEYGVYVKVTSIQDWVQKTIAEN
Assay: non-reducing SDS-PAGE; Coomassie-stained gel of non-reduced protein samples; disulfide-linked dimers and multimers

stoichiometry N: 2
B1: cleavage-site mutated recombinant haptoglobin Hp1S (Q101A, R102A), uncleaved proHp (natural protein)
chain: VDSGNDVTDIADDGCPKPPEIAHGYVEHSVRYQCKNYYKLRTEGDGVYTLNNEKQWINKAVGDKLPECEAVCGKPKNPANPVAAILGGHLDAKGSFPWQAKMVSHHNLTTGATLINEQWLLTTAKNLFLNHSENATAKDIAPTLTLYVGKKQLVEIEKVVLHPNYSQVDIGLIKLKQKVSVNERVMPICLPSKDYAEVGRVGYVSGWGRNANFKFTDHLKYVMLPVADQDQCIRHYEGSTVPEKKTPKSPVGVQPILNEHTFCAGMSKYQEDTCYGDAGSAFAVHDLEEDTWYATGILSFDKSCAVAEYGVYVKVTSIQDWVQKTIAEN
modifications: Uncleaved single-chain proHp1S with signal peptide removed; paper's Q101/R102 (precursor Hp1 numbering) = Q160/R161 of P00738; disulfide-linked dimer; N-glycosylated; C-terminal 8xHis tag omitted / …
